Here are results for one protein from paper PMC6497303, “Molecular understanding of calcium permeation through the open Orai channel” (PLoS Biology, 2019).

This data set concerns the molecule itself. The experiment in a line: crystal structure; purified dOrai-P288L in NG/NM detergent with POPC:POPE:POPG lipid, sitting drop, 17°C, sodium citrate pH 6.5, PEG400; 4.5 Å; 2 hexamers in each asymmetric unit.

B1: Drosophila melanogaster Orai (dOrai) mutant (P288L) channel, amino acids 132 to 341 with C224S, C283T and P288L (domain or fragment, UniProt Q9U6B8 132-341, looked up)
chain: SMSQSGEDLHSPTYLSWRKLQLSRAKLKASSKTSALLSGFAMVAMVEVQLDHDTNVPPGMLIAFAICTTLLVAVHMLALMISTCILPNIETVSNLHSISLVHESPHERLHWYIETAWAFSTLLGLILFLLEIAILCWVKFYDLSPPAAWSATVVLILVMIIFMAFAIHFYRSLVSHKYEVTVSGIRELEMLKEQMEQDHLEHHNNIRNNG
notes: Orai, Drosophila melanogaster, UniProt Q9U6B8, residues 132 to 341 with C224S, C283T and P288L; codons optimised for Homo sapiens; PreScission site between Orai and eGFP; residues of the site may be left after 3C cleavage; also called dOrai-P288L; dOrai-P288L channel; not shown: eGFP, C-terminal, cleaved
Usually stoichiometry N stands for a count of units in the complex or per binding partner. Turning to B1, the “stoichiometry N” value amounted to 6.
